# Biological target: T1, hPD-L1mIg fusion protein (human, UniProt Q9NZQ7 19-238)
# T1 construct: also called hPD-L1 mIg protein; biotin-labeled hPD-L1-mouse Fc fusion protein; not shown: mouse Ig (Fc) part
# Experiment: BLI, ForteBio Octet RED96; biotin-labeled hPD-L1-mouse Fc on SA sensors, 1:1 model
# Description: All samples were prepared in PBS buffer (pH=7.4). The biotin-labeled hPD-L1-mouse Fc fusion protein was loaded onto SA sensors at a pre-determined loading threshold. scFv (PD-L1) was applied to the sensors at a concentration gradient of 3.125 nM-50 nM. Background subtraction was used to correct for sensor drifting. The data was fit to a 1:1 binding model using ForteBio's data analysis software in order to obtain the association (Kₒₙ) and dissociation (Koff) rates. The KD values were calculated based on Koff/Kₒₙ.
# T1 sequence (Q9NZQ7 19-238): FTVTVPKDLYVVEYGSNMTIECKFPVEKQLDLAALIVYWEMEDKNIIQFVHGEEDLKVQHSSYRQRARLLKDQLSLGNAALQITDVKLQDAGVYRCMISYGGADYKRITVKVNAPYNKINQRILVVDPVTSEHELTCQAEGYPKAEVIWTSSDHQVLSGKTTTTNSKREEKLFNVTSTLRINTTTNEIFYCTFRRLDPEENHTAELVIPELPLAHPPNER
Binder,Kd [nM],koff [s⁻¹],kon [M⁻¹ s⁻¹]
"parental humanized IgG1 positive control antibody (antibody, V domains shown, also called anti-PD-L1 IgG1; Anti-Human PD-L1 IgG1) VH: QVQLVQSGAEVKKPGASVKVSCKASGFNIKDTYMYWVRQAPGQGLEWMGRIDPANDNTKYAQKFQGRVTITADTSTSTAYMELSSLRSEDTAVYYCARAKNLLNYFDYWGQGTLVTVSS VL: DIQMTQSPSSLSASVGDRVTITCRASQEISGYLSWLQQKPGKAPKRLIYATSTLQSGVPSRFSGSRSGTDYTLTISSLQPEDFATYYCLQYAIYPLTFGQGTKLEIKR",6.92,0.000225,32600

# Biological target: T2, mouse PD-L1 on transfected CHO cells (mouse, UniProt Q9EP73 19-290)
# T2 construct: whole, on cells; also called mPD-L1; CHO/mPD-L1
# Experiment: flow cytometry on CHO/mPD-L1 cells, one antibody amount, not given
# Description: CHO cells transfected with mouse PD-L1 (CHO/mPD-L1) were used to assess the species cross-reactivity of the anti-hPD-L1 mAb with mouse PD-L1. The cells were incubated with the anti-hPD-L1 mAb prior to flow cytometry analysis.
# T2 sequence (Q9EP73 19-290): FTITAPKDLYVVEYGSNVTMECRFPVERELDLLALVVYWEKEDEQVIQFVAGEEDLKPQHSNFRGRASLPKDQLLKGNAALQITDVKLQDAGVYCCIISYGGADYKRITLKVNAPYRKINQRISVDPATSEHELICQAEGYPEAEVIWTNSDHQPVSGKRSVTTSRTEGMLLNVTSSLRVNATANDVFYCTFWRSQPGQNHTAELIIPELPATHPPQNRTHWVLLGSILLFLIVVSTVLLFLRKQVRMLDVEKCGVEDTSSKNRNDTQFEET
row,Binder,binding result
1,"anti-hPD-L1 mAb 5B7 (antibody, IgG1, V domains shown, also called anti hPD-L1 monoclonal antibody 5B7; anti-hPD-L1 monoclonal antibody) VH: EVQLQQSGAELVKPGASVKLSCTASGFNIKDTYMYWVKQRPEQGLECIGRIDPANDNTKYDPKFQGKATITADTSSNTAYVQLASLTSEDTAVYYCARAKNLLNYFDYWGQGTTLTVSS VL: DIQMTQSPSSLSASLGERVTLSCRASQEISGYLSWLQQKPDGTIKRLIYATSTLDSGVPKRFSGSRSGSDYSLTISSLESEDFADYYCLQYAIYPLTFGAGTKLELKR",binds

# Biological target: T1, hPD-L1mIg fusion protein
# Experiment: SPR, Biacore T200; hPD-L1 mIg amine-coupled on CM5 chip, antibody injected at 1-32 nM, full kinetic analysis
# Description: The binding affinities and kinetics between the humanized anti-hPD-L1 mAbs and the hPD-L1 protein were assessed with Biacore T200 (GE Healthcare Life Sciences). The hPD-L1 mIg protein was immobilized on the sensor chip CM5 by amine coupling. The parental and humanized antibodies were injected at a concentration gradient of 1, 2, 4, 8, 16, and 32 nM. Binding kinetic parameters, including association rate (Kₒₙ), dissociation rate (Koff), and affinity constant (KD) were determined by full kinetic analysis. […] As shown in Table 7 and FIG. 4, the antibodies with dissociation rates (Koff) from the lowest to the highest were: parental (PA200), H1+L2 (H12), H3+L2 (H32), H1+L1 (H11), H1+L3 (H13), H3+L1 (H31), H3+L3 (H33), H2+L2 (H22), H2+L1 (H21), and H2+L3 (H23).
Binder,Kd [nM],koff [s⁻¹],kon [M⁻¹ s⁻¹]
"anti-PD-L1 HC1 + LC2 (antibody, V domains shown, Humanized antibody, Humanized VH 1 + Humanized VL 2; also called H1+L2; H12) VH: QVQLVQSGAEVKKPGASVKVSCKASGFNIKDTYMYWVRQAPGQGLEWMGRIDPANDNTKYAQKFQGRVTITADTSTSTAYMELSSLRSEDTAVYYCARAKNLLNYFDYWGQGTLVTVSS VL: DIQMTQSPSSLSASVGDRVTITCRASQEISGYLSWLQQKPGKAPKRLIYATSTLQSGVPSRFSGSRSGTDYTLTISSLQPEDFATYYCLQYAIYPLTFGQGTKLEIKR",0.557,0.000811,1.46e+06
"anti-PD-L1 HC3 + LC1 (antibody, V domains shown, Humanized antibody, Humanized VH3 + Humanized VL 1; also called H3+L1; H31) VH: EVQLVQSGAEVKKPGASVKVSCKASGFNIKDTYMYWVRQAPGQGLEWMGRIDPANDNTKYAQKFQGRVTITADTSTNTAYMELSSLRSEDTAVYYCARAKNLLNYFDYWGQGTLVTVSS VL: DIQMTQSPSSLSASVGDRVTITCRASQEISGYLSWYQQKPGKAPKRLIYATSTLDSGVPSRFSGSGSGTDFTLTISSLQPEDFATYYCLQYAIYPLTFGQGTKLEIKR",1.17,0.00146,1.25e+06
"anti-PD-L1 HC3 + LC3 (antibody, V domains shown, Humanized antibody, Humanized VH3 + Humanized VL 3; also called H3+L3; H33) VH: EVQLVQSGAEVKKPGASVKVSCKASGFNIKDTYMYWVRQAPGQGLEWMGRIDPANDNTKYAQKFQGRVTITADTSTNTAYMELSSLRSEDTAVYYCARAKNLLNYFDYWGQGTLVTVSS VL: DIQMTQSPSSLSASVGDRVTITCRASQEISGYLSWYQQKPGKAPKRLIYATSTLDSGVPSRFSGSRSGSDYTLTISSLQPEDFATYYCLQYAIYPLTFGQGTKLEIKR",1,0.00146,1.46e+06
"anti-PD-L1 HC2 + LC3 (antibody, V domains shown, Humanized antibody, Humanized VH 2 + Humanized VL 3; also called H2+L3; H23) VH: QVQLVQSGAEVKKPGASVKVSCKASGFNIKDTYMYWVRQAPGQGLEWIGRIDPANDNTKYAPKFQGRVTITADTSTNTAYMELSSLRSEDTAVYYCARAKNLLNYFDYWGQGTLVTVSS VL: DIQMTQSPSSLSASVGDRVTITCRASQEISGYLSWYQQKPGKAPKRLIYATSTLDSGVPSRFSGSRSGSDYTLTISSLQPEDFATYYCLQYAIYPLTFGQGTKLEIKR",1.84,0.00417,2.26e+06
"anti-PD-L1 HC3 + LC2 (antibody, V domains shown, Humanized antibody, Humanized VH3 + Humanized VL 2; also called H3+L2; H32) VH: EVQLVQSGAEVKKPGASVKVSCKASGFNIKDTYMYWVRQAPGQGLEWMGRIDPANDNTKYAQKFQGRVTITADTSTNTAYMELSSLRSEDTAVYYCARAKNLLNYFDYWGQGTLVTVSS VL: DIQMTQSPSSLSASVGDRVTITCRASQEISGYLSWLQQKPGKAPKRLIYATSTLQSGVPSRFSGSRSGTDYTLTISSLQPEDFATYYCLQYAIYPLTFGQGTKLEIKR",0.666,0.0011,1.65e+06
"anti-PD-L1 HC2 + LC1 (antibody, V domains shown, Humanized antibody, Humanized VH 2 + Humanized VL 1; also called H2+L1; H21) VH: QVQLVQSGAEVKKPGASVKVSCKASGFNIKDTYMYWVRQAPGQGLEWIGRIDPANDNTKYAPKFQGRVTITADTSTNTAYMELSSLRSEDTAVYYCARAKNLLNYFDYWGQGTLVTVSS VL: DIQMTQSPSSLSASVGDRVTITCRASQEISGYLSWYQQKPGKAPKRLIYATSTLDSGVPSRFSGSGSGTDFTLTISSLQPEDFATYYCLQYAIYPLTFGQGTKLEIKR",2.18,0.00406,1.86e+06
"anti-PD-L1 HC1 + LC3 (antibody, V domains shown, Humanized antibody, Humanized VH 1 + Humanized VL 3; also called H1+L3; H13) VH: QVQLVQSGAEVKKPGASVKVSCKASGFNIKDTYMYWVRQAPGQGLEWMGRIDPANDNTKYAQKFQGRVTITADTSTSTAYMELSSLRSEDTAVYYCARAKNLLNYFDYWGQGTLVTVSS VL: DIQMTQSPSSLSASVGDRVTITCRASQEISGYLSWYQQKPGKAPKRLIYATSTLDSGVPSRFSGSRSGSDYTLTISSLQPEDFATYYCLQYAIYPLTFGQGTKLEIKR",1.3,0.00143,1.1e+06
"anti-PD-L1 HC2 + LC2 (antibody, V domains shown, Humanized antibody, Humanized VH 2 + Humanized VL 2; also called H2+L2; H22) VH: QVQLVQSGAEVKKPGASVKVSCKASGFNIKDTYMYWVRQAPGQGLEWIGRIDPANDNTKYAPKFQGRVTITADTSTNTAYMELSSLRSEDTAVYYCARAKNLLNYFDYWGQGTLVTVSS VL: DIQMTQSPSSLSASVGDRVTITCRASQEISGYLSWLQQKPGKAPKRLIYATSTLQSGVPSRFSGSRSGTDYTLTISSLQPEDFATYYCLQYAIYPLTFGQGTKLEIKR",1.23,0.00251,2.05e+06
"anti-PD-L1 HC1 + LC1 (antibody, V domains shown, Humanized antibody, Humanized VH 1 + Humanized VL 1; also called H1+L1; H11) VH: QVQLVQSGAEVKKPGASVKVSCKASGFNIKDTYMYWVRQAPGQGLEWMGRIDPANDNTKYAQKFQGRVTITADTSTSTAYMELSSLRSEDTAVYYCARAKNLLNYFDYWGQGTLVTVSS VL: DIQMTQSPSSLSASVGDRVTITCRASQEISGYLSWYQQKPGKAPKRLIYATSTLDSGVPSRFSGSGSGTDFTLTISSLQPEDFATYYCLQYAIYPLTFGQGTKLEIKR",1.38,0.0012,869000
"anti-PD-L1 parental (mouse-human chimeric mAb) (antibody, human IgG1, kappa, V domains shown, its variable domains are the same; also called parental chimeric antibody; parental (PA200)) VH: EVQLQQSGAELVKPGASVKLSCTASGFNIKDTYMYWVKQRPEQGLECIGRIDPANDNTKYDPKFQGKATITADTSSNTAYVQLASLTSEDTAVYYCARAKNLLNYFDYWGQGTTLTVSS VL: DIQMTQSPSSLSASLGERVTLSCRASQEISGYLSWLQQKPDGTIKRLIYATSTLDSGVPKRFSGSRSGSDYSLTISSLESEDFADYYCLQYAIYPLTFGAGTKLELKR",0.128,0.000118,924000

# — patent US20210213145A1 (TAYU HUAXIA BIOTECH MEDICAL GROUP, published 2021)
